From patent US20230012273A1 (Boehringer Ingelheim, published 2023)

What was measured:
[1] = target: T1, full-length human SIRPγ (NP_061026.2) on cells (human, UniProt Q9P1W8 29-387); assay: flow cytometry, primary human CD3+ T cells; endogenous SIRPγ on primary human CD3+ T cells
T1 construct: on CHO and Expi-CHO cells; endogenous on primary human CD3+ T cells; also called γ WT
Description: Antibody binding to primary human T cells expressing endogenous SIRPγ is evaluated by flow cytometry. Human peripheral blood mononuclear cells (PBMCs) are blocked with donkey IgG and incubated on ice with increasing concentrations of antibody for 60 minutes, washed and stained with AF647-conjugated donkey F(ab′)₂ anti-human IgG secondary reagent. […] Cells are washed, fixed, and analyzed by flow cytometry. Median fluorescent intensity of CD3+ gated population is determined and used as a measure of antibody binding.

[2] = target: T2, full-length human SIRPβ1 (NP_006056.2) on cells (human, UniProt O00241 30-398); assay: flow cytometry, U937 SIRPα-KO cells expressing full-length human SIRPβ1
T2 construct: also called β1 WT
Description: (§1) Antibody binding to cells expressing full-length human SIRPβ1 (NP_006056.2) and SIRPβL (NP_001129316.1) is evaluated by flow cytometry. SIRPβ1- or SIRPβL-expressing U937^{SIRPα KO} cells are blocked with donkey IgG and incubated on ice with increasing concentrations of antibodies for 60 minutes, washed and stained with AF647-conjugated donkey F(ab′)₂ anti-human IgG secondary reagent. Cells are washed, fixed, and analyzed by flow cytometry. Median fluorescent intensity is determined and used as a measure of antibody binding.

[3] = target: T3, full-length cynomolgus SIRPα (XP_015313155) on CHO cells, clone P3HD10 (cynomolgus monkey, UniProt A0A2K5VYQ9 31-507); assay: flow cytometry, CHO cells
T3 construct: whole, on cells; also called XP_015313155 Clone P3HD10
T3 sequence: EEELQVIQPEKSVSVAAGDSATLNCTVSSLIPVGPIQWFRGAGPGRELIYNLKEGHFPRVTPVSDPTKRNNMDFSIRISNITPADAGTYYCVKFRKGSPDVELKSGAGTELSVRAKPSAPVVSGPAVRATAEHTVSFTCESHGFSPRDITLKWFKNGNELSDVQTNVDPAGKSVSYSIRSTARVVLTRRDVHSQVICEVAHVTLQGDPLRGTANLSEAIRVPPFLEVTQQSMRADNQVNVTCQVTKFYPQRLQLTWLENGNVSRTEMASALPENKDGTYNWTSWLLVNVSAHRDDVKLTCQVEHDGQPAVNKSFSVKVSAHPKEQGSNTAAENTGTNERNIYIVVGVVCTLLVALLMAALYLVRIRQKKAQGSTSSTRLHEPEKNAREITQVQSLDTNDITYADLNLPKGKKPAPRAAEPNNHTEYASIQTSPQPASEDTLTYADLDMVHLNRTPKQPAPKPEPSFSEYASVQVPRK
Description: as §1, with “cynomolgus (cyno) SIRPα was” for “full-length human SIRPβ1 (NP_006056.2) and SIRPβL (NP_001129316.1) is”, “CHO-K1 cells expressing full-length cyno SIRPα; derived from protein sequence accession numbers (A) EGM-02252; (B) XP_015313155;” for “SIRPβ1-”, “(C) NP_001271679,” for “SIRPβL-expressing U937^{SIRPα KO} cells”

T1 sequence (Q9P1W8 29-387): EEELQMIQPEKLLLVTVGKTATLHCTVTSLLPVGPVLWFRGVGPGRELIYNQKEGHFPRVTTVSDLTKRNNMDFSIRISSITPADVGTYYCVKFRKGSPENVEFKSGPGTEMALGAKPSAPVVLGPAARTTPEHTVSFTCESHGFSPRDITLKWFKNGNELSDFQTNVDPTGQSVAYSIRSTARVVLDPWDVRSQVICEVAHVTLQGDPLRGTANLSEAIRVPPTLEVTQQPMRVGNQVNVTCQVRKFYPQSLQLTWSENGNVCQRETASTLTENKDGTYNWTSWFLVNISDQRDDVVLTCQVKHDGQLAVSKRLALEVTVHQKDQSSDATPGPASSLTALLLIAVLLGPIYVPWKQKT
T2 sequence (O00241 30-398): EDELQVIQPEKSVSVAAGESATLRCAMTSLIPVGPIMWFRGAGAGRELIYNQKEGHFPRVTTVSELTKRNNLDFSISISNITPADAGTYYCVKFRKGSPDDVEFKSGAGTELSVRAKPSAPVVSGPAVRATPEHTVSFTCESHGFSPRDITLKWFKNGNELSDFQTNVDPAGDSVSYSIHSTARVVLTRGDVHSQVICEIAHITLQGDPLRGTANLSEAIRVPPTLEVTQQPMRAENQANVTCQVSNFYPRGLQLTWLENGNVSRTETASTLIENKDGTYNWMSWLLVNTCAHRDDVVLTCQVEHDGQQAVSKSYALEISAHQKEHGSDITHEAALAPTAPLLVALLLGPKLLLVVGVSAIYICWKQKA

B1: Antibody A (antibody, human IgG1, kappa, L234A L235A)
heavy: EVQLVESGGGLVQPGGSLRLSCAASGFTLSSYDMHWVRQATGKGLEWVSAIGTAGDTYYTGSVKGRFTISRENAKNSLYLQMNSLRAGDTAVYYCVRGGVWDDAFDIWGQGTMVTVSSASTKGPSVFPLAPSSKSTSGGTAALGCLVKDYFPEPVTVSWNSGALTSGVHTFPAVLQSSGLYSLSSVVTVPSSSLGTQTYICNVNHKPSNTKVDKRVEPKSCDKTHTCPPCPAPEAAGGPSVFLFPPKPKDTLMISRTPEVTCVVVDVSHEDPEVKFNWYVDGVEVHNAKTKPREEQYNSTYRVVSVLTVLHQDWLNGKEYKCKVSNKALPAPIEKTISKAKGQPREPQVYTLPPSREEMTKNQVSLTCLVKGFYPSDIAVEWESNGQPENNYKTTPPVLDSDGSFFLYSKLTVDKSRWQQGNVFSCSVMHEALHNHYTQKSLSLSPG
light: DIQMTQSPSSLSASVGDRVTITCRASQDINNYLAWFQQKPGKAPKSLIYTASSLHSGVPSKFSGSGSGTDFTLTISSLQPEDFATYYCQQYVSYPYTFGQGTKLEIKRTVAAPSVFIFPPSDEQLKSGTASVVCLLNNFYPREAKVQWKVDNALQSGNSQESVTEQDSKDSTYSLSSTLTLSKADYEKHKVYACEVTHQGLSSPVTKSFNRGEC
Question: Does B1 bind [1]?
Answer: no binding

B2: Antibody E22 (antibody, human IgG1, kappa, L234A L235A, V domains shown)
VH: QVQLQESGPGLVKPSETLSLTCTVSGGSIRDYYWSWIRQPPGKGLEWIGFIYYNGRTFYQSSLKSRVTISLDTSKNQFSLKMTSVTAADTAVYYCARVRAYSGIGLDGTDVWGQGTTVTVSS
VL: DIVMTQSPLSLPVTPGEPASISCRSSQSLLYSTGYTYLDWYLQRPGQSPQLLIYGGSSRASGVPDRFSGSGSGTDFTLKISRVEAEDVGVFYCGQALQTPLTFGQGTKVEIKR
Question: Does B2 bind [2]?
Answer: no binding (tested: about 200 nM)

B3: Anti-SIRPα antibody KWAR23 (antibody, V domains shown)
VH: EVQLQQSGAELVKPGASVKLSCTASGFNIKDYYIHWVQQRTEQGLEWIGRIDPEDGETKYAPKFQDKATITADTSSNTAYLHLSSLTSEDTAVYYCARWGAYWGQGTLVTVSS
VL: QIVLTQSPAIMSASPGEKVTLTCSASSSVSSSYLYWYQQKPGSSPKLWIYSTSNLASGVPARFSGSGSGTSYSLTISSMEAEDAASYFCHQWSSYPRTFGAGTKLELK
Question: With B3 as the binder, how does the EC50 [3] read?
Answer: 0.5 nM
